Data: US10369187B2, “Peptide regulators of JNK family kinases” (Vanderbilt University, priority 2017, dated 2019)

Target: MKK4-JNK3 module (Homo sapiens, UniProt P45985+P53779)
Assay: In vitro phosphorylation of JNK3α2 by MKK4 (reconstituted module)
Assay type: biochemical
Protocol: Next, it was tested whether T1A acts as a scaffold facilitating signaling. To this end, experiments used purified proteins, because they provide the most definitive data supporting a direct interaction. As purified ASK1 is not available, MKK4-JNK3 and MKK7-JNK3 modules were reconstituted in the absence and presence of varying concentrations of synthetic purified T1A peptide and measured JNK3 phosphorylation (FIG. 2A). […] This dependence, where signaling is increased at lower scaffold concentrations and decreased at higher, was also found for scaffolding of these modules by full-length arrestin-3^20. It is believed to be a characteristic of simple scaffolds, which act by bringing the enzyme and substrate together, as lower scaffold concentrations make the formation of complete scaffold-enzyme-substrate ternary complexes likely, whereas higher concentrations increase the probability of formation of incomplete enzyme-scaffold and substrate-scaffold binary complexes, suppressing the signaling^25,26. The optimal concentration of a scaffolding protein for signaling depends on its affinity for the proteins it scaffolds^20,25,26.
JNK3α2^20,23, and MKK4 and MKK7^17,20 were expressed in E. coli and purified as previously described^40. The effect of arrestin-3 and MBP-T1A on the phosphorylation of JNK3α2 by MKK7 or MKK4 was analyzed by an in vitro kinase assay, as described^19,20. Briefly, the assays were conducted in 10 μL containing the following final concentrations: 50 nM active MKK7 or MKK4, 1 μM JNK3α2, and indicated concentrations of arrestin-3 or T1A. The mixtures were incubated individually at 30° C. for 10 sec. The reactions were stopped by the addition of 15 μL of Laemmli SDS sample buffer (Sigma) and 2 μl of total reaction sample was subjected to SDS-PAGE (8%) and transferred polyvinylidene difluoride (PVDF) membranes (Millipore, Bedford, Mass.). Phosphorylated JNK3α2 was visualized by rabbit anti-phospho JNK antibody (Cell Signaling) and the level of JNK phosphorylation was quantified.

MKK4-JNK3 module, sequence (P45985 whole entry): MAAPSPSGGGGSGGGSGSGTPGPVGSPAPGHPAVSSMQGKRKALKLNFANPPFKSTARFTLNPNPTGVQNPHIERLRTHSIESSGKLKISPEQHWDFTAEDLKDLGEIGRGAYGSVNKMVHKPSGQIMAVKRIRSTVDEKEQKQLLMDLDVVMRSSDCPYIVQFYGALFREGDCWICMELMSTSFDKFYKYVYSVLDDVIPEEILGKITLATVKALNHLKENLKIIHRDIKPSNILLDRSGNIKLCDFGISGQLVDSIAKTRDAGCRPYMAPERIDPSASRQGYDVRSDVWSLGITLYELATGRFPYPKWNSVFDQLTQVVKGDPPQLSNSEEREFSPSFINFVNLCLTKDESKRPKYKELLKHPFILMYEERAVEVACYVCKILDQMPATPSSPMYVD
MKK4-JNK3 module, sequence (P53779 whole entry): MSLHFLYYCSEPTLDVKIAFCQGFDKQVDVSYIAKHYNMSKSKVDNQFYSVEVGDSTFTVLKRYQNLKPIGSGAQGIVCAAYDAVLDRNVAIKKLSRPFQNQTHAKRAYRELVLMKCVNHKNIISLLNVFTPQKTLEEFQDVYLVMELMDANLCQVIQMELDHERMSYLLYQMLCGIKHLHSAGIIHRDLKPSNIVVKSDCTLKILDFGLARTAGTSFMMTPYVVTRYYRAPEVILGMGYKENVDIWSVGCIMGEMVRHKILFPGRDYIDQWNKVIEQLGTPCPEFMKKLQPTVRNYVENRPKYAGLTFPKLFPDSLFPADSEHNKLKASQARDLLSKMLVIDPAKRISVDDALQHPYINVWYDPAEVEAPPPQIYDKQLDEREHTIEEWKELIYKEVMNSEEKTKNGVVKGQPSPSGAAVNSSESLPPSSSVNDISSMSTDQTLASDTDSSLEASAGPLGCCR

optimal concentration for promoting JNK3 phosphorylation by MKK4 compared with MKK7-JNK3 module: lower than for MKK7-JNK3 module
optimal concentration relative to full-length arrestin-3, MKK4-JNK3 module: ~10 times lower
JNK3 phosphorylation level by MKK4 as a function of T1A concentration (50 nM MKK4, 1 μM JNK3α2, 10 sec, 30° C., synthetic purified peptide): bell-shaped curves
Sequence: MGEKPGTRVFKKSSPNCKLTVYLGK (bovine) [T1A, first 25 residues of arrestin-3]
